Source: paper PMC11286415

Tests used:
[1] = target: Trypanosoma brucei multi-aminoacyl-tRNA synthetase complex (MSC)-associated protein 3 (MCP3), wild type (Trypanosoma brucei); assay: SEC-MALS; 300 ug protein at 3 mg/mL in 100 uL; 30 mM Tris-HCl pH 8.0, 100 mM NaCl, 5 mM MgCl2, 2 mM DTT; incubated at 27°C for 1 h; Superdex 200 Increase 10/300 GL, 0.5 mL/min; no tRNA
[2] = target: Trypanosoma brucei multi-aminoacyl-tRNA synthetase complex (MSC)-associated protein 3 (MCP3), wild type (Trypanosoma brucei); assay: ITC; dimer to monomers: 250 uM WT MCP3 in the syringe injected into buffer in the cell (50 mM glycylglycine pH 8.0, 300 mM NaCl, 2 mM DTE); 13 injections of 1 uL, 25°C
[3] = tested on: WT MCP3 (Trypanosoma brucei); assay: ITC; conditions: 1 mM Mg2+; unmodified in vitro transcript; ITC: 20 mM MOPS pH 7.8, 100 mM NaCl, 2 mM DTE, 1 mM MgCl2, 25 C, 30 uM protein in cell, 300 uM tRNA in syringe; SEC-MALS: preincubation 27 C, run at 4 C …
[4] = tested on: ΔN MCP3 (Trypanosoma brucei); assay: ITC; conditions: unmodified in vitro transcript; ITC: 20 mM MOPS pH 7.8, 100 mM NaCl, 2 mM DTE, 1 mM MgCl2, 25 C, 30 uM protein in cell, 300 uM tRNA in syringe; SEC-MALS: preincubation 27 C, run at 4 C …

Substance | stoichiometry N [1] | Kd [2] | Kd [3] | Kd [4]
Trypanosoma brucei multi-aminoacyl-tRNA synthetase complex (MSC)-associated protein 3 (MCP3), wild type (enzyme) | 2 | 2.6 µM | – | –
tRNAAla | – | – | 1.12 µM | –
tRNAPro | – | – | 1.05 µM | 0.809 µM
